Legend:
[1] = target: T1, full-length human ROR2 on cells (human, UniProt Q01974 34-943); assay: flow cytometry, T47D cells (endogenous hROR2), IgG 100 ng/100 µL, anti-human Fc APC
T1 construct: whole, on cells; the cells are named under assay; In the Western blot it is denatured; also called hROR2; cell surface human ROR2

[2] = target: T2, Ig; assay: flow cytometry, HEK 293F cells displaying the construct, IgG1 1 µg/mL, APC (binding) against PE (expression); on Vec cells Q2 6.53 and 73.5 in the PE- APC+ quadrant
T2 construct: transmembrane segment; also called HA-Ig

[3] = target: T3, Ig+Fr (human); assay: as above
T3 construct: two-domain fragment;transmembrane segment; also called HA-Ig+Fr

[4] = target: T4, hROR2-T245 extracellular domain displayed on HEK 293F cells (human, UniProt Q01974 55-394; P09619 513-561); assay: as above
T4 construct: range 55-394;range 513-561; also called complete ECD

[5] = target: T2, Ig; assay: flow cytometry, HEK 293F cells displaying the construct, IgG1 1 µg/mL, APC (binding) against PE (expression); on Vec cells Q2 1.86
[6] = target: T5, Fr (human); assay: as above
T5 construct: isolated domain;transmembrane segment; also called HA-Fr

[7] = target: T6, Ki (human); assay: as above
T6 construct: isolated domain;transmembrane segment; also called HA-Ki

[8] = target: T3, Ig+Fr; assay: as above
[9] = target: Fr+Ki (human); assay: as above
Fr+Ki (human), sequence (chain, as listed by the source): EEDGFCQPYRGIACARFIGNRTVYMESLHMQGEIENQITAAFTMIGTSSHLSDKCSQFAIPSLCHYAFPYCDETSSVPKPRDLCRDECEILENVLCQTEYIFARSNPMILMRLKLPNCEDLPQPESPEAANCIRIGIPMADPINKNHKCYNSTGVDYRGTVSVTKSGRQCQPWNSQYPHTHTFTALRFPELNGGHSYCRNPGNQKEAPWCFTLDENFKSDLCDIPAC

[10] = target: T4, hROR2-T245 extracellular domain …; assay: as above
[11] = target: T7, human CD20 on HEK293 cells (Retrogenix array) (human, UniProt P11836 1-297); assay: Retrogenix cell microarray, identical slides of fixed HEK293 cells, AlexaFluor647 anti-human IgG Fc
T7 construct: whole, on cells
T7 sequence (looked up): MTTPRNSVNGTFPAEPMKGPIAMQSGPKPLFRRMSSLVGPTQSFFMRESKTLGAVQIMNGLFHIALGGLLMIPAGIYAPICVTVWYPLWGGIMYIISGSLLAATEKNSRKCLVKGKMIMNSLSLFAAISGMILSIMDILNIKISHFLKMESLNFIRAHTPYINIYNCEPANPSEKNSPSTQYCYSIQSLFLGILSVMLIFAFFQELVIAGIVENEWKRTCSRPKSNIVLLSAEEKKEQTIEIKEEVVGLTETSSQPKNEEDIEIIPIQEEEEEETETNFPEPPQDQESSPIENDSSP

B1: XBR2-TOP72 (IgG) (antibody, V domains shown)
VH: QEQLEESGGRLVTPGTPLTLTCTVSGIDLSSNAMSWVRQAPGKGLEYVGFINGGGGVHYASWARGRFTISKTSTTVDLKITSPTTEDTATYFCARAGTTYYTSFNLWGPGTLVTISS
VL: QFVLTQSPSASAALGSSAKLTCTLSSAHKTYTIAWYQQQQGEAPRLLMMLRTDGSYTKGTGVPDRFSGSSSGADRYLIISSVQADDAAGYYCGADYSGGYVFGGGTQLTVTG
notes: also called chimeric rabbit/human IgG1 XBR2-TOP72
binding result [1]: binds

B2: IgG1 XBR2-433 (antibody, V domains shown)
VH: QSVKESEGGLFKPTDTLTLTCTVSGFSLSTYGVSWVRQAPGNGLEWIGAIGSSGSANYASWAKDRSTITRNTNLNTVTLKMTSLTAADTATYFCARDGYYSSGWGPYFNIWGPGTLVTISS
VL: SFVLTQPASVQVNLGQTVSLTCTADTLSRSYASWYQQKPGQAPVLLIYRDTSRPSGVPDRFSGSSSGNTATLTISGAQAGDEADYYCATSGGSGSNPQYVFGGGTQLTVTG
cells in quadrant Q2 (PE+ APC+) [2]: 67% | cells in quadrant Q2 (PE+ APC+) [3]: 50.7% | cells in quadrant Q2 (PE+ APC+) [4]: 90.6%

B3: IgG1 XBR2-416 (antibody, V domains shown)
VH: QEQLEESGGRLVTPGTPLTLTCTVSGFSLSSYWMSWVRQAPGKGLEWIGTITPGGNTDYATWAKARFTVSKTSTTVDLKITSPTTEDTATYFCARGIGGAADLWGPGTLVTISS
VL: AQVLTQTPSSTSAAVGGTVTIKCQASQSISSSDLSWYQQKPGQPPKLLIYATSYLASGVPSRFKGSGSGTEYTLTISGVQREDAATYYCLGGYPNTSYRSAFGGGTKVEIK
notes: also called chimeric rabbit/human IgG1 XBR2-416
cells in quadrant Q2 (PE+ APC+) [5]: 3.22% | cells in quadrant Q2 (PE+ APC+) [6]: 4.05% | cells in quadrant Q2 (PE+ APC+) [7]: 90.2% | cells in quadrant Q2 (PE+ APC+) [8]: 3.9% | cells in quadrant Q2 (PE+ APC+) [9]: 69.7% | cells in quadrant Q2 (PE+ APC+) [10]: 55.9%

B4: chimeric rabbit/human IgG1 XBR2-401 (antibody, V domains shown)
VH: QSVKESEGGLFKPTDTLTLTCTVSGFSLSSYGVTWVRQAPGSGLEWIGYINTAGNTYYASWAKSRSTITRNTNENTVTLKMTSLTAADTATYFCARDWTSLNIWGPGTLVTVSS
VL: DPMLTQTPSSTSTAVGDTVTIKCQASQSISSDLSWYQQKPGQRPKLLIYQASTLASGVPSRFKGSGYGTEYTLTISGVQREDAAIYYCLGGYADASYRTAFGGGTKLEIK
binding result [11]: no binding (tested: 20 µg/mL)

From patent publication US20190031754A1 (Scripps Research, published 2019)
